According to IntAct's records for PubMed 25503564:

B1: Centrosomal protein of 68 kDa (Homo sapiens), Q76N32 (parent)
chain: MALGEEKAEAEASEDTKAQSYGRGSCRERELDIPGPMSGEQPPRLEAEGGLISPVWGAEGIPAPTCWIGTDPGGPSRAHQPQASDANREPVAERSEPALSGLPPATMGSGDLLLSGESQVEKTKLSSSEEFPQTLSLPRTTTICSGHDADTEDDPSLADLPQALDLSQQPHSSGLSCLSQWKSVLSPGSAAQPSSCSISASSTGSSLQGHQERAEPRGGSLAKVSSSLEPVVPQEPSSVVGLGPRPQWSPQPVFSGGDASGLGRRRLSFQAEYWACVLPDSLPPSPDRHSPLWNPNKEYEDLLDYTYPLRPGPQLPKHLDSRVPADPVLQDSGVDLDSFSVSPASTLKSPTNVSPNCPPAEATALPFSGPREPSLKQWPSRVPQKQGGMGLASWSQLASTPRAPGSRDARWERREPALRGAKDRLTIGKHLDMGSPQLRTRDRGWPSPRPEREKRTSQSARRPTCTESRWKSEEEVESDDEYLALPARLTQVSSLVSYLGSISTLVTLPTGDIKGQSPLEVSDSDGPASFPSSSSQSQLPPGAALQGSGDPEGQNPCFLRSFVRAHDSAGEGSLGSSQALGVSSGLLKTRPSLPARLDRWPFSDPDVEGQLPRKGGEQGKESLVQCVKTFCCQLEELICWLYNVADVTDHGTAARSNLTSLKSSLQLYRQFKKDIDEHQSLTESVLQKGEILLQCLLENTPVLEDVLGRIAKQSGELESHADRLYDSILASLDMLAGCTLIPDKKPMAAMEHPCEGV

Variants of: B1
Conditions: with fbw1a_human BTRC

Row | Variant | effect of a mutation on the interaction
1 | S332A;D337A | disrupting interaction strength
2 | S332A | disrupting interaction strength
3 | D337A | decreasing interaction strength
